Experimental data as given in publication doi:10.1101/2025.11.04.686334 (2025).

How the values were obtained:
Experiment in all cases: BLI
HA220-4 = target: HA220-4
HA220-M4T = target: HA220-M4T
HA220-1 = HA220-1 (human, UniProt Q9NZ52 16-146)

Row | Binder | Kd (HA220-4) [nM] | Kd (HA220-M4T) [nM] | koff (HA220-M4T) [s⁻¹] | Kd (HA220-1) [nM]
1 | D2 H1-1/H3-1 mAb (antibody, V domains shown) VH: QVQLVQSGGGLVRPGGSLRLSCAASGFTFSSAWMTWVRQAPGKGLEWVANIKEDGSEKYYVDSVKGRFSISRDNAKNSLYLQISSLRAEDTAVYYCARRFVERLWGQSKPYDAVDIWGQGTMVTVSG VL: DIQMTQSPSSLSASVGDRVTITCRASQSISNYLNWYQQKPGKAPKLLIYVASNLQSGVPSRFSGSGSGTDFALTISSLQPEDFASYYCQQSYSPVTTFGGGTKVEIK | 65 | 2.55 | 0.00017 | 
2 | S1V2-58 mAb (antibody, V domains shown) VH: QVQLQESGPGLVKPSETLSLTCTVSGGSLSIYYWSWVRQSPGKGLEWIGYISNSGSPTYHPSLKSRVTISLDTSKSQFSLKLTSVTAADTALYFCARGVLEQLAPDFDSYYYGMNVWGQGTTVTVSG VL: DIQMTQSPSSVSASLGDRVTLTCRASQPIRSYLNWYQHKPGLAPKLLVYAVSNLQSGVPSRFSGSGSGTDFTLTVSSLQPEDFATYYCQQSYSTPYTFGQGTRLEIK | 178 | 10.7 | 0.00043 | 
3 | FluA-20 mAb (antibody, V domains shown) VH: QVQLEESGPGLVKPSETLSLTCSVSGVSVTSDIYYWTWIRQPPGKGLEWIGYIFYNGDTNYNPSLKSRVTMSIDTSKNEFSLRLTSVTAADTAVYFCARGTEDLGYCSSGSCPNHWGQGTLVTVSS VL: DIVMTQSPSSLSASIGDRVTITCRPSQNIRSFLNWFQHKPGKAPKLLIYAASNLQSGVPSRFSGSGSGTEFTLTIRSLQPEDFATYYCQQSYNTPPTFGQGTKVEIK | 110 | 0.253 |  | > 12000
